# Data taken from IntAct's records for PubMed 17227844.
# B1: Spindle assembly checkpoint protein BUB3 (Saccharomyces cerevisiae), P26449 (parent)
# chain: MQIVQIEQAPKDYISDIKIIPSKSLLLITSWDGSLTVYKFDIQAKNVDLLQSLRYKHPLLCCNFIDNTDLQIYVGTVQGEILKVDLIGSPSFQALTNNEANLGICRICKYGDDKLIAASWDGLIEVIDPRNYGDGVIAVKNLNSNNTKVKNKIFTMDTNSSRLIVGMNNSQVQWFRLPLCEDDNGTIEESGLKYQIRDVALLPKEQEGYACSSIDGRVAVEFFDDQGDDYNSSKRFAFRCHRLNLKDTNLAYPVNSIEFSPRHKFLYTAGSDGIISCWNLQTRKKIKNFAKFNEDSVVKIACSDNILCLATSDDTFKTNAAIDQTIELNASSIYIIFDYEN
# partner: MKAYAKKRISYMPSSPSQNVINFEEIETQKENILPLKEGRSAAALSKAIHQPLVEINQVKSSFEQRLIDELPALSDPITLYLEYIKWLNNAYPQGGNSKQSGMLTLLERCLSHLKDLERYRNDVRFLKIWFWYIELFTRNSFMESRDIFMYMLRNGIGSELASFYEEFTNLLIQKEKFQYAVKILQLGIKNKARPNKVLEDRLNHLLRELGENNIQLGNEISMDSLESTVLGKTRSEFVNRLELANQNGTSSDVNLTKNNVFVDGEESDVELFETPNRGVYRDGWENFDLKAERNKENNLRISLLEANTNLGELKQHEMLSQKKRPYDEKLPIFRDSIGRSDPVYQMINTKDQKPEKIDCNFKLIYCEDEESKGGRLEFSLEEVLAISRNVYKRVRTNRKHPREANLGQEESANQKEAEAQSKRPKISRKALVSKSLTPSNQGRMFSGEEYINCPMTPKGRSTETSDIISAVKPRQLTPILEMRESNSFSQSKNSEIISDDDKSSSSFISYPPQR
# Variants of: B1
# Details: with mad3_yeast MAD3, P47074
row,Variant,effect of a mutation on the interaction
1,MQIVQIEQAPKDYISDIKIIPSKSLLLITSWDGSLTVYKFDIQAKNVDLLQSLRYKHPLLCCNFIDNTDLQIYVGTVQGEILKVDLIGSPSFQALTNNEANLGICRICKYGDDKLIAASWDGLIEVIDPRNYGDGVIAVKNLNSNNTKVKNKIFTMDTNSSRLIVGMNNSQVQWFRLPLCEDDNGTIEESGLKYQIEDVALLPKEQEGYACSSIDGRVAVEFFDDQGDDYNSSKRFAFRCHRLNLKDTNLAYPVNSIEFSPRHKFLYTAGSDGIISCWNLQTRKKIKNFAKFNEDSVVKIACSDNILCLATSDDTFKTNAAIDQTIELNASSIYIIFDYEN [R197E],disrupting interaction strength
